Measurements from publication PMC4403245.

Target: GST-tagged KAHRP fragment K1D (Plasmodium falciparum) (UniProt P06719)
Assay: SPR

Sequence of UniProt P06719 (P06719 35-657): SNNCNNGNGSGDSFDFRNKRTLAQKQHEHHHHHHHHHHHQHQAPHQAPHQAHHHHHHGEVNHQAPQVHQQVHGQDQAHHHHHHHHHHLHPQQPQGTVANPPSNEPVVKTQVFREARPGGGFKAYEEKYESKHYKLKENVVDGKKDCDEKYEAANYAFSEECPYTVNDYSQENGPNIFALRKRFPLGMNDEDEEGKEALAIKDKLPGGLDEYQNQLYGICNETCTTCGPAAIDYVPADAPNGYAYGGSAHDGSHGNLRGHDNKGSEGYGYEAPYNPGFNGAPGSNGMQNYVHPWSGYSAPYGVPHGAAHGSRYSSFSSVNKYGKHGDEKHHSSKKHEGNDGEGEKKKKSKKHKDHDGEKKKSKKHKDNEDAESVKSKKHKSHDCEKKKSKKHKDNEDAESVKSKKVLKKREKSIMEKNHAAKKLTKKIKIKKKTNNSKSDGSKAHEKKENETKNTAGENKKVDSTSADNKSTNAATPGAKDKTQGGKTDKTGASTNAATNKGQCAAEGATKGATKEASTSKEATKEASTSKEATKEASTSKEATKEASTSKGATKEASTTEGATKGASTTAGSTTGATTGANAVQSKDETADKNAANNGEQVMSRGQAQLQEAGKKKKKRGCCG

Substance | Kd [µM] | koff [s⁻¹] | kon [M⁻¹ s⁻¹]
MBP-tagged D3 subdomain of the ankyrin R membrane-binding domain (from UniProt P16157 404-601) (domain or fragment) | 0.046 | 0.00137 | 29900
MBP-tagged ankyrin R N-terminal 89 kDa membrane binding domain (from UniProt P16157 1-827) (domain or fragment) | 0.038 | 0.00161 | 42800
